Assay [1] addresses T1, Recombinant human IL-23 receptor (IL-23R) extracellular domain (ECD) protein (human, UniProt Q5VWK5 24-355).
T1 construct: also called human IL-23R ECD; hu IL-23R ECD
T1 sequence: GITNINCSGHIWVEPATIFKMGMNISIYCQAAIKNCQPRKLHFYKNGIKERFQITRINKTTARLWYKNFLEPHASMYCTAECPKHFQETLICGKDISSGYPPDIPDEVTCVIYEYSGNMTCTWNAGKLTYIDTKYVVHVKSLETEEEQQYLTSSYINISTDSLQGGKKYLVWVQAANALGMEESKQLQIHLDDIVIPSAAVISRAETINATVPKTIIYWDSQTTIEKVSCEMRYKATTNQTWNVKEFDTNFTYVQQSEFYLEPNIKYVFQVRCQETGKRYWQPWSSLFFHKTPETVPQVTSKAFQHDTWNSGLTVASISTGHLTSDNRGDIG
In words: SPR Biacore 8K, supernatant, analysis 2. As for the experimental part: (§1) Affinity by SPR using Biacore 8K. Affinity measurements using Surface Plasmon Resonance (SPR) were performed using a Biacore 8K system (Cytiva). […] Approximately 9000-10000 RU (response units) of mAbs were immobilized. The kinetic experiments were performed at 25° C. in running buffer 1× of (HBS-P+ Buffer 10× (Cytiva #BR100671)+100 μg/ml BSA). To perform kinetic experiments, approximately 150 RU of mAbs were captured followed by injections of human IL-23R or rat IL-23R at concentrations ranging from 0.8 nM to 500 nM (in a 5-fold serial dilution). The association phase was monitored for 3 minutes at 50 μL/min, then followed by 30 minutes of buffer flow (dissociation phase). […] The collected data were processed using Biacore insight Evaluation software (Version 3.0.12.15655). The kinetic analysis of the data was performed using a Langmuir 1:1 binding model. The result for each mAb was reported in the format of Ka (On-rate), Kd (Off-rate) and KD (equilibrium dissociation constant).
In general terms: SPR reads the build-up and loss of mass on a sensor chip optically.

For assay [2], the target named is T2, rat IL-23R extracellular domain (ECD) protein (rat).
T2 construct: also called rat IL-23R ECD; F1LX96 amino acids 24-354
T2 chain: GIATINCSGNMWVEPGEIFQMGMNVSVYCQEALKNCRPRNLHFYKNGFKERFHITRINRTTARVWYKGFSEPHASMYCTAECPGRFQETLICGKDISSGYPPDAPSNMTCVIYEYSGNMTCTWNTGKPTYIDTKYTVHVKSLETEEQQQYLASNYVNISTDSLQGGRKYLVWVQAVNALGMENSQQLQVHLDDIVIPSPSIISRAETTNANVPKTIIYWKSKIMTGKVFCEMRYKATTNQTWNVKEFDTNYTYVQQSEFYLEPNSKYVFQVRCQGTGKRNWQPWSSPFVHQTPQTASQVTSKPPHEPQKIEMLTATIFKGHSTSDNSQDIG
In words: SPR Biacore 8K, supernatant. Here is the method: as §1

Assay [3] concerns the target T1, Recombinant human IL-23 receptor …. The experiment in a line: SPR Biacore 8K, supernatant, analysis 1. Here is the method:
as §1

B1: I23RB268 (antibody, mouse IgG2a, kappa, V domains shown)
VH: QVQLVQSGAEVKKPGSSVKVSCKASGGTFSSYYIHWVRQAPGQGLEWMGGIIPIFGYANYAQKFQGRVTITADESTSTAYMELSSLRSEDTAVYYCARDPGSYGSVYYRRSYYFDYWGQGTLVTVSS
VL: EIVLTQSPATLSLSPGERATLSCRASQSVSSYLAWYQQKPGQAPRLLIYDASNRATGIPARFSGSGSGTDFTLTISSLEPEDFAVYYCQQRSNWPLTFGQGTKVEIKR
notes: phage display; human V regions, mouse IgG2a/kappa constant regions
The Kd is the equilibrium constant for the complex coming apart. By koff is commonly meant the rate constant with which the complex falls apart. A word on the kon: it is a measure of how fast the partners come together. Turning to B1, in assay [1], the Kd amounted to 18.9 nM, the koff amounted to 0.000308 s⁻¹ and the kon is 16300 M⁻¹ s⁻¹. For the same molecule, the binding result in assay [2] is recorded as “no binding (tested: 500 nM)”. In addition, in assay [3], the Kd was found to be 12 nM, the koff is 0.000273 s⁻¹ and the kon was determined as 22800 M⁻¹ s⁻¹.

B2: I23RB73 (antibody, mouse IgG2a, kappa, V domains shown)
VH: EVQLQQSGAELVKPGASVKISCKASGYTFTDHAIHWVKQRPEQGLEWIGYISLGNGDIKYSEKFRGKATLTADKTSNTAYMQLNSLTSEDSAVYFCKRSRVLRWTTYWYFDVWGAGTSVTVSS
VL: DIVMTQSHKFMSTSVGDRVSITCKASQDVSTAVAWYQQKPGQSPKLLIYWASTRLTGVPDRFTGSGSGTDYTLTISSVQAEDLALYYCQQYYNTPLTFGAGTKLELKR
notes: mouse immunization; mouse IgG2a/kappa
With B2, in assay [1], the Kd came to 13.7 nM, the koff is 0.00293 s⁻¹ and the kon was 213000 M⁻¹ s⁻¹. The binding result in assay [2] is listed as “no binding (tested: 500 nM)”. In addition, in assay [3], the Kd was found to be 11.7 nM, the koff stood at 0.00378 s⁻¹ and the kon was found to be 322000 M⁻¹ s⁻¹.

B3: I23RB77 (antibody, mouse IgG2a, kappa, V domains shown)
VH: DVQLQESGPGLVAPSQSLSITCTVSGFSLSRYSVHWVRQPPGKGLEWLGMIWGSGSTDYNSALKSRLSINKDNSKSQVFLKMNSLQTDDTAMYYCARVYYGGSPYAMDYWGQGTTVTVSS
VL: DIVMTQSPASLALSLGQRATISCRASESVDSYGNSFMHWYQQKPGQPPKLLIYLASNLESGVPARFSGSGSRTDFTLTIDPVEADDAAIYYCQQNNEEPNTFGAGTKLEMKR
notes: as for B2
For the molecule B3, in assay [1], the Kd is 18 nM, the koff turned out to be 0.01 s⁻¹ and the association rate constant (kon) is 556000 M⁻¹ s⁻¹. Further, the binding result in assay [2] is reported as “no binding (tested: 500 nM)”. In assay [3], the Kd was 1.54 nM, the koff amounted to 0.00214 s⁻¹ and the kon was found to be 1.39e+06 M⁻¹ s⁻¹.

B4: I23RB98 (antibody, mouse IgG2a, kappa, V domains shown)
VH: EFQLQQSGPELVKPGASVKMSCKASGYTFTNYYMHWVKQSHGKTIEWIGYIYPNSGDTSYNQKFKGKATLTVDKSSSTAYMELRSLTSEDSAVYTCARFGGFYDAMDYWGQGTTVTVSS
VL: DIVLTQSPAIMSASLGERVTMTCTASSSVSSSYLHWYQQKPGSSPKLWIYSTSNLASGVPARFSGSGSGTSYSLTISSMEAEDAATYYCHQYHRSPFTFGSGTKLEMKR
notes: as for B2
Take B4: in assay [1], the Kd amounted to 25.8 nM, the koff amounted to 0.0035 s⁻¹ and the kon turned out to be 136000 M⁻¹ s⁻¹. Also, the binding result in assay [2] is “no binding (tested: 500 nM)”. Besides, in assay [3], the Kd turned out to be 39.1 nM, the koff was found to be 0.00294 s⁻¹ and the kon came to 75100 M⁻¹ s⁻¹.

B5: I23RB57 (antibody, mouse IgG2a, kappa, V domains shown)
VH: EFQLQQSGPELVKPGASVKMSCKASGYTFTNYYMHWVKQSHGKTIEWIGYIYPNSGDTSYNQKFKGKATLTVDKSSSTAYMELRSLTSEDSAVYNCARFGGFYDAMDYWGQGTSVTVSS
VL: DIVMTQSPAIMSASLGERVTMTCTASSSVSSSYLHWYQQKPGSSPKLWIYSTSNLASGVPARFSGSGSGTSYSLTISSMEAEDAATYYCHQYHRSPFTFGSGTKLEIKR
notes: as for B2
B5: in assay [1], the Kd amounted to 38.1 nM, the off-rate constant (koff) is 0.00307 s⁻¹ and the kon was 80700 M⁻¹ s⁻¹. Moreover, the binding result in assay [2] was “no binding (tested: 500 nM)”. Besides, in assay [3], the Kd was 29.2 nM, the dissociation rate constant (koff) was determined as 0.00299 s⁻¹ and the kon turned out to be 102000 M⁻¹ s⁻¹.

B6: I23RB82 (antibody, mouse IgG2a, kappa, V domains shown)
VH: QVQLKESGPGLVAPSQSLSITCTVSGFSLTNYALHWFRQSPGKGLEWLGVIWSDGSTDYNSPFISRLSISKDNSKSQVFFKMNSLQADDTAIYYCARSRSNYGRWYFDVWGAGTTLTVSS
VL: QIVLSQSHKFMSTSVGDRVSITCKASQDVSTAVAWYQQKPGQSPKLLIYSAFYRYTGVPDRFTGSGSGTDFTFTISSVQAEDLAVYYCQQHYSTPYTFGGGTKLEIKR
notes: as for B2
As to B6, in assay [1], the Kd is 34.4 nM, the koff amounted to 0.0136 s⁻¹ and the kon was found to be 397000 M⁻¹ s⁻¹. Also, the binding result in assay [2] is listed as “no binding (tested: 500 nM)”. In assay [3], the Kd was found to be 4.67 nM, the koff worked out at 0.00247 s⁻¹ and the on-rate constant (kon) came out at 529000 M⁻¹ s⁻¹.

B7: I23RB83 (antibody, mouse IgG2a, kappa, V domains shown)
VH: DVQLQESGPGLVAPSQSLSITCTVSGFSLTNYDVHWVRQSPGKGLEWLGVIWSDGSTDYNAAFISRLSFSKDNSKRQVFFKMNSLQPDDTAIYYCARNNYYRYGRNPMDYWGQGTTVTVSS
VL: DIQMTQSPASQSASLGESVTITCLASQTIGSWLAWYQQKPGKSPQLLIYAATSLADGVPSRFSGSGSGTKFSFKISSLQAEDFVSYYCQQLYSSPLTFGGGTKLEIKR
notes: as for B2
On to B7, for which, in assay [1], the Kd stood at 0.345 nM, the koff came out at 5.91e-05 s⁻¹ and the kon is 172000 M⁻¹ s⁻¹. Moreover, the binding result in assay [2] is on record as “no binding (tested: 500 nM)”. Further, in assay [3], the Kd came to 0.366 nM, the koff was determined as 0.000119 s⁻¹ and the kon worked out at 325000 M⁻¹ s⁻¹.

B8: I23RB93 (antibody, mouse IgG2a, kappa, V domains shown)
VH: QVQLKESGPGLVQPSQSLSITCTVSGFSLTSYGVHWVRQSPGKGLEWLGVIWSGVSTDYNAAFISRLSISKDNSKSQVFFKMNSLQADDTAIYYCARSRGSYYFDYWGQGTTLTVSS
VL: DIKMTQSPATLSVTPGDSVSLFCRASQSISNNLHWYQQKSHESPRLLIKYASQSISGIPSRFSGSGSGTDFTLSINSVETEDFGMYFCQQSNSWPLTFGGGTKLEIKR
notes: as for B2
As for B8, in assay [1], the Kd was determined as 2.9 nM, the koff was 0.00123 s⁻¹ and the kon came to 423000 M⁻¹ s⁻¹. Moreover, the binding result in assay [2] is given as “no binding (tested: 500 nM)”. Besides, in assay [3], the Kd is 2.88 nM, the koff is 0.00138 s⁻¹ and the kon was determined as 480000 M⁻¹ s⁻¹.

B9: I23RB267 (antibody, mouse IgG2a, kappa, V domains shown)
VH: EVQLVQSGAEVKKPGESLKISCKGSGYSFTSYWIGWVRQMPGKGLEWMGIIYPGDSDTRYSPSFQGQVTISADKSISTAYLQWSSLKASDTAMYYCARVWYSSWDLDYWGQGTLVTVSS
VL: not shown
notes: as for B1
With B9, in assay [1], the Kd worked out at 7.56 nM, the koff is 0.000178 s⁻¹ and the kon was 23500 M⁻¹ s⁻¹. Also, the binding result in assay [2] is reported as “no binding (tested: 500 nM)”. In addition, in assay [3], the Kd was determined as 18.1 nM, the koff came out at 0.000196 s⁻¹ and the kon was 10800 M⁻¹ s⁻¹.

B10: I23RB86 (antibody, mouse IgG2a, kappa, V domains shown)
VH: EVQLQQSGAELVKPGASVKLSCKASGYTFTSYWLHWVKQRPGQGLEWIGEIDPSDSYTYYNQKFKGKATLTVDKSSSTAYMQLSSLTSEDSAVYYCARSPYDYDWGAYWGQGTSVTVSS
VL: DIVMTQSPSSMSVSLGDTVSITCHASQGISSNIGWLQQKPGKSFKGLIYHGTNLEDEVPSRFSGSGSGADYSLTIGSLESEDFADYYCVQYAQFPWTFGAGTKLEMKR
notes: as for B2
Regarding B10, in assay [1], the Kd was 8.14 nM, the koff was found to be 0.000572 s⁻¹ and the kon came out at 70300 M⁻¹ s⁻¹. Moreover, in assay [2], the binding result was “no binding (tested: 500 nM)”. Moreover, in assay [3], the Kd is 8.06 nM, the koff turned out to be 0.000587 s⁻¹ and the kon is 72800 M⁻¹ s⁻¹.

B11: I23RB61 (antibody, mouse IgG2a, kappa, V domains shown)
VH: DVQLQESGAELVKPGASVKLSCKSFDYTFTSFDINWMKQRPGQGLEWIGWIFPGSGTTNYNEKFKGKATLTADKSSSTAYMHLTSLTSEDSAVYFCARRLTGTRYFDVWGTGTTLTVSS
VL: DIQMTQSHKFLSTSVGDRITITCKASQDVITAVAWYQQKSGQSPKLLIYWASTRHTGVPDRFTGSGSGTDYTLTISNVQAEDLALYYCQQHYTTPPTFGAGTKLELKR
notes: as for B2
Regarding B11, in assay [1], the Kd came to 5.5 nM, the koff was found to be 0.00195 s⁻¹ and the kon worked out at 355000 M⁻¹ s⁻¹. Besides, in assay [2], the binding result was “no binding (tested: 500 nM)”. In assay [3], the Kd was found to be 22.1 nM, the koff is 0.0101 s⁻¹ and the kon amounted to 459000 M⁻¹ s⁻¹.

These data come from patent US20250179196A1 (Janssen / Centocor, published 2025).
